Our source for the response values is publication PMC13043812.

To fix the notation:
B1: unnamed (parent)
chain 1: MVTHELLVKAAGAVLTGLVGVSAYETLRKALGTAPIRRASVTVMEWGLRGTRRAEAAAESARLTVADVVAEARGRIGEEAPLPAGARVDE
chain 2: MTTVVDAEVQLTVVSDAAGRMRVQATGFQFDAGRAVAIEDTVGKVAGVQAVHAYPRTASIVIWYSRAICDTAAILSAIIDAETVPA

The test covers variants of B1. Conditions: with partner chain of the complex shown; in M. smegmatis; parent: 100; read off a plot.
chain 1 E71A: the response came to 8.5 % GFP+ cells.
To chain 1 E59A E71A belongs 0.015 % GFP+ cells; to chain 1 E59A, 0.31 % GFP+ cells.
